Assay [1] concerns the target NRPS N-(5-amino-5-carboxypentanoyl)-L-cysteinyl-D-valine synthase PcbAB (Penicillium chrysogenum).
In assay [2] the target is NRPS Pc21g12630 protein ChyA (Penicillium chrysogenum).
For assay [3], the target named is NRPS Roquefortine/meleagrin synthesis protein A RoqA (Penicillium chrysogenum).

Chain of MbtH-like protein Tcp13 from the teicoplanin biosynthesis cluster from Actinoplanes teichomyceticus (chain): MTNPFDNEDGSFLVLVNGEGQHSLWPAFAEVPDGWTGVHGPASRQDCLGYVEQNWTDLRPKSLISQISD
Chain of MbtH-like homologue identified in the Veg biosynthesis cluster obtainable from an uncultured soil bacterium, called VEG8 (chain): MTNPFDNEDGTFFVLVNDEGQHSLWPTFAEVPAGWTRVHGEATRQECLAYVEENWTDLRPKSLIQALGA

On to “MbtH-like homologue identified in the Teg biosynthesis cluster obtainable from an uncultured soil bacterium, called TEG”, for which the relative productivity of LLD-ACV (penicillin cluster), day 5, strain DS47274, transformant 11-5, LC/MS, untransformed strain set to 1.0 (fold of the untransformed strain (1.0)) in assay [1] stood at 10.9. In addition, in assay [2], the relative productivity of Chrysogenin 12 (chrysogenin cluster), day 5, strain DS47274, transformant 11-5, LC/MS, untransformed strain set to 1.0 (fold of the untransformed strain (1.0)) came to 266. In addition, the relative productivity of HTD (roquefortine cluster), day 2, strain DS47274, transformant 11-5, LC/MS, untransformed strain set to 1.0 (fold of the untransformed strain (1.0)) in assay [3] was 9.35.

Turning to “MbtH-like homologue SCO0489 from the calcium dependent antibiotic (CDA) biosynthesis cluster from Streptomyces coelicolor, called CDAI”, the relative productivity of LLD-ACV (penicillin cluster), day 5, strain DS47274, transformant 9-5, LC/MS, untransformed strain set to 1.0 (fold of the untransformed strain (1.0)) in assay [1] stood at 12.5. The same substance came in with a relative productivity of Chrysogenin 12 (chrysogenin cluster), day 5, strain DS47274, transformant 9-4, LC/MS, untransformed strain set to 1.0 (fold of the untransformed strain (1.0)) in assay [2] of 413. This substance returned a relative productivity of HTD (roquefortine cluster), day 2, strain DS47274, transformant 9-5, LC/MS, untransformed strain set to 1.0 (fold of the untransformed strain (1.0)) in assay [3] of 4.48.

For “MbtH-like protein Tcp13 from the teicoplanin biosynthesis cluster from Actinoplanes teichomyceticus”, in assay [1], the relative productivity of LLD-ACV (penicillin cluster), day 5, strain DS47274, transformant 10-2, LC/MS, untransformed strain set to 1.0 (fold of the untransformed strain (1.0)) is 16.1. The substance further had a relative productivity of Chrysogenin 12 (chrysogenin cluster), day 5, strain DS47274, transformant 10-5, LC/MS, untransformed strain set to 1.0 (fold of the untransformed strain (1.0)) in assay [2] of 465. Moreover, the relative productivity of HTD (roquefortine cluster), day 2, strain DS47274, transformant 10-2, LC/MS, untransformed strain set to 1.0 (fold of the untransformed strain (1.0)) in assay [3] came out at 2.64.

Turning to “MbtH-like homologue from the complestatine biosynthesis cluster from Streptomyces lavendulae, called COM”, the relative productivity of LLD-ACV (penicillin cluster), day 5, strain DS47274, transformant 7-3, LC/MS, untransformed strain set to 1.0 (fold of the untransformed strain (1.0)) in assay [1] amounted to 22.7. Also, the relative productivity of Chrysogenin 12 (chrysogenin cluster), day 5, strain DS47274, transformant 7-3, LC/MS, untransformed strain set to 1.0 (fold of the untransformed strain (1.0)) in assay [2] is 317. The relative productivity of HTD (roquefortine cluster), day 2, strain DS47274, transformant 8-4, LC/MS, untransformed strain set to 1.0 (fold of the untransformed strain (1.0)) in assay [3] was 2.32.

“MbtH-like homologue identified in the Veg biosynthesis cluster obtainable from an uncultured soil bacterium, called VEG8” showed a relative productivity of LLD-ACV (penicillin cluster), day 5, strain DS47274, transformant 12-4, LC/MS, untransformed strain set to 1.0 (fold of the untransformed strain (1.0)) in assay [1] of 2.32. This substance displayed a relative productivity of Chrysogenin 12 (chrysogenin cluster), day 5, strain DS47274, transformant 12-4, LC/MS, untransformed strain set to 1.0 (fold of the untransformed strain (1.0)) in assay [2] of 189. The same substance gave a relative productivity of HTD (roquefortine cluster), day 2, strain DS47274, transformant 12-4, LC/MS, untransformed strain set to 1.0 (fold of the untransformed strain (1.0)) in assay [3] of 2.9.
